Measurements published in article PMC8025756.
Read-outs that look alike come from different tables or passages of the source.

Key:
[1] = target: two-chain factor VII-activating protease (tcFSAP) (human); assay: enzyme inhibition kinetics
[2] = target: two-chain factor VII-activating protease (tcFSAP) (human); assay: enzyme inhibition kinetics; remark: listed apart in the source
[3] = target: two-chain factor VII-activating protease (tcFSAP) (human); assay: SDS-stable complex formation, SDS-PAGE and Western blot
[4] = target: two-chain factor VII-activating protease (tcFSAP) (human); assay: enzyme inhibition kinetics; remark: listed apart in the source
[5] = target: two-chain factor VII-activating protease (tcFSAP) (human); assay: enzyme inhibition kinetics; remark: listed apart in the source
[6] = target: two-chain factor VII-activating protease (tcFSAP) (human); assay: enzyme inhibition kinetics; remark: listed apart in the source

second-order inhibition rate constant Ka [1]: 623000 M⁻¹ s⁻¹ | second-order inhibition rate constant Ka [2]: 443000 M⁻¹ s⁻¹ | stoichiometry N [3]: 1 | second-order inhibition rate constant Ka [4]: 338000 M⁻¹ s⁻¹ | second-order inhibition rate constant Ka [5]: 558000 M⁻¹ s⁻¹ | second-order inhibition rate constant Ka [6]: 1.61e+06 M⁻¹ s⁻¹
Substance: recombinant human wild-type plasminogen activator inhibitor-1 (PAI-1) (from UniProt P05121 24-402) (natural protein)
